Measured values published in the nanobody polyreactivity screen of Harvey et al. (2022).

Experiment: yeast display, Sf9 membrane polyspecificity reagent, FACS + sequencing; frameworks hold sequencing errors
Procedure, shortened: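 After 36–48 hours of galactose induction, yeast (Saccharomyces cerevisiae BJ5465) displaying a synthetic nanobody library were stained at 4 °C for 1 hour with 10% biotinylated, detergent-solubilized Sf9 membrane reagent. Streptavidin microbeads enriched the stained cells before FACS sorting into low and high (top ~1%) gates on anti-HA and streptavidin fluorescence. Each clone's polyreactivity label reflects its gate of origin.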

Row | Sequence | polyreactivity (PSR sort gate)
1 | QVQLVESCGGLVQAGGSLRLSCAATGSTIRTYAMGWYRQAPGTERELVAAISRSGGRTYYADSVKGRFTISRDNAKNTVYLQMNSLTPEDTAVYYCAKVSQRRVDTSDYDYWGQGTQVTVSS | high polyreactivity
2 | QVQLVESCGGLVQAGGSLRLSCAGSGSTFVYYAMGWSRQAPGQERELVAAISRSGGSTYYADSVKGRFTISRDNAKNTVYLQMHSLKPEDTAVYYCNKYAIFPAYRYPRSDYWGQGTQVTVSS | high polyreactivity
3 | QVQLVESCGGLVQAGGSLRLSFAASGSTFGYYTMGWYRQAPGKERELVAAISWSGGSTYYADSVKGRFTISRDNAKNTVYLQMNSLKPEDTAVYFCAALGYTYKYYSYYWGQGTQVTVSS | high polyreactivity
4 | QVQLVESCGGLVQAGGSLRLTCAASGSTFTIYAMGWYRQAPGKERELVAVISSSGGSTYYADSVKGRFTISRDYAKNTVYLQMNSLKPEDTAVYYCAADTRYFGGYLTLYYWGQGTQVTVSS | low polyreactivity
5 | QVQLVESCGGLVQARGSLRLSCAASGRTIDSYAMGWYRQAPGKERELVAAITSGVSTYYADSVKGRITISRDNATNTVYLQMNSLQPEDTSVYYCARKHAIWRGYDFWGQGTQVTVSS | low polyreactivity
6 | QVQLVESCGGLVQAVGSLRLSCAASGIIIGYNAIGWYILAPGKEREFVAAISGYGGSTRYADSVKGRFTISRDYGKNSVYLQMNSLKPEDTAVYYCAARSRYCYITFDYWGQGTQVTVSS | high polyreactivity
7 | QVQLVESFGGLVHAGGSLRLSCAASGFTFTSYTMGWYRQAPGKEREMVAAITNTGGSTYYADSVKGRFTISRDNAKNYVYLQMNSLKQEDTWVYYCAARTHIYGKFWRFYWGQGTQVTVSS | low polyreactivity
8 | QVQLVESGAALVQAGGSLRLSCAASGFTFFTYAMGWYRQATGKDSELVAAITSSGGSTYYADSVKGRFTISRDNAKNTVYLQMNSLNPEDTAVYDCAASVYFWYDYWGQGTQGTVSS | high polyreactivity
9 | QVQLVESGAGIVQAGGSLRLCCAATGITFDFYAMGWYTQAPGKERELVAAISYSGTSTSYADSVKGRFTISRDNAKNTVYLQMNSLKPEDTAVYYCNARIGWTHSYYELDYWGQGTQVTVSS | low polyreactivity
10 | QVQLVESGAGLVHAGGSLRFSCAPSGIIIYRYAMGWYRQAPGKERELVAGISQRGGNTYYADSVKGRFTISRDNEKNTVYLQMYSLKPEDTAVYYCAAPYYGTRTNNRHEYWGLGTQVTVSS | high polyreactivity
11 | QVQLVESGAGLVHAGGSLRLSCAASGSTFSPYAMGWYRQAPGKESELVAAITSSGGSTYYADSVKGRFTISRDNAKNTVYLQMISLKPEDTALYYCAAVGYYTSTYDLYDYYYWGQGTHVTVSS | low polyreactivity
12 | QVQLVESGAGLVKAGGILRLSCAASGFTFYGYAMGWYRQAPGKERELVAAITFRGDRTYYADSVKGRFTISRDNAKNTVYLQMNSLIPEDTAVYYCAAERPSGWYSYLSLYIVRRGYWGQGTQVSVSS | low polyreactivity
13 | QVQLVESGAGLVKAGGSLRLSCAASGFSFQRNAMGWYRQAPGKERELVAAINRSGGRTYYADSVKGRFTISRDNAKYTVYLQMNSLKPEDTAVYYCAADSTYEYYFWGQGTQVTVSS | high polyreactivity
14 | QVQLVESGAGLVLPGGSLRLSCAASGNTTSTNAMGWYRQAPGKERVAALTWSTGSTYYEDSVKVRFTISRDNAKNTVYLQMNSLKQDETAVYYCAKQTYVSEYGLATAAWGFDYWGQGTQVTVSS | low polyreactivity
15 | QVQLVESGAGLVQAAGSLSLSCASAGSTFFLYAMGRYRRAHGKVREFVAAISDTGGSTYYADSVKGRFTISRDNATNTVYLQMISLKPEDTACYYCNRVVASFYRSRYDYWGQGTQVTVSS | low polyreactivity
16 | QVQLVESGAGLVQAGGILRLSCAASGRIIAYYAMGWYRQAPGKERELVAAINWSGGRTYYADSVKGRFTISRDNAKNTVYLQMNSLKPEDTAVYYCAARVSYGYDYWGQGTQVTVSS | high polyreactivity
17 | QVQLVESGAGLVQAGGILRLSCAASGSTFIYNAMGWYIQAPGKERELVAAISARTGNTYYADSVKGRFTISRDNAKNTVYLQMNSLKPEDTAVYYCARRGFRRGGGPSRYYWYDYWGQGTQVTVSS | high polyreactivity
